Assay results reported in US20090155256A1 (Pfizer, published 2009).

B1: Humanized 3D6 2m (FcγR), human IgG1 L234A/G237A (EU numbering) (antibody)
heavy: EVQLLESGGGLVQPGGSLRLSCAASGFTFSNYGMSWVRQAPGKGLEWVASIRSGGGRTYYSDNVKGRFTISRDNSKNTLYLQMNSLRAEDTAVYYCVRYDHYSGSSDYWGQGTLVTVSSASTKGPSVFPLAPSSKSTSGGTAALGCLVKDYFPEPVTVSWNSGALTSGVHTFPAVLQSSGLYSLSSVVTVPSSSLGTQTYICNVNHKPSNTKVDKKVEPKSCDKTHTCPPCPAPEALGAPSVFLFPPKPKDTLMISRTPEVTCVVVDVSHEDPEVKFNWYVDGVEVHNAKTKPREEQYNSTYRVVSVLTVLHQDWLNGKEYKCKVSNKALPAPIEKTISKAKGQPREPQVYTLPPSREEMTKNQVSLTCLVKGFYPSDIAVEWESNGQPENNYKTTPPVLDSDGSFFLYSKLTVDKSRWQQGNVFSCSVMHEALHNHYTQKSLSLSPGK
light: DVVMTQSPLSLPVTPGEPASISCKSSQSLLDSDGKTYLNWLLQKPGQSPQRLIYLVSKLDSGVPDRFSGSGSGTDFTLKISRVEAEDVGVYYCWQGTHFPRTFGQGTKVEIKRTVAAPSVFIFPPSDEQLKSGTASVVCLLNNFYPREAKVQWKVDNALQSGNSQESVTEQDSKDSTYSLSSTLTLSKADYEKHKVYACEVTHQGLSSPVTKSFNRGEC
notes: also called Hu 3D6 2 m; Hu 3D6 2 m IgG1
B2: Humanized 3D6 1m (hinge region), human IgG4 S241P (Kabat numbering) (antibody)
heavy: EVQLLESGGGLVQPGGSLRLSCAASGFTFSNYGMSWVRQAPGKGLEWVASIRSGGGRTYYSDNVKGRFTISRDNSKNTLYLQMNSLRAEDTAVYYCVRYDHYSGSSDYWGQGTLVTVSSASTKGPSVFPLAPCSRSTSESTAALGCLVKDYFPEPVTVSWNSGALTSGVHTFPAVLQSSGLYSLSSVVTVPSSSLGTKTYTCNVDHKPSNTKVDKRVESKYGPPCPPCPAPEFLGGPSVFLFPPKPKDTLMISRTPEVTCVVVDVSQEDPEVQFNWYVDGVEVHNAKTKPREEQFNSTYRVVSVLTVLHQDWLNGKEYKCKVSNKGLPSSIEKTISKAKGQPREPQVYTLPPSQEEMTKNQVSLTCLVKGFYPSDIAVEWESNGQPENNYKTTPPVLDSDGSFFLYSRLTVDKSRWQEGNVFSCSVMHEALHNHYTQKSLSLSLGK
light: B1 light
notes: also called Hu 3D6 1m IgG4; IgG4 isotype
B3: Humanized 3D6 3m (FcγR) AAB-003, human IgG1 L234A/L235A/G237A (EU numbering) (antibody)
heavy: EVQLLESGGGLVQPGGSLRLSCAASGFTFSNYGMSWVRQAPGKGLEWVASIRSGGGRTYYSDNVKGRFTISRDNSKNTLYLQMNSLRAEDTAVYYCVRYDHYSGSSDYWGQGTLVTVSSASTKGPSVFPLAPSSKSTSGGTAALGCLVKDYFPEPVTVSWNSGALTSGVHTFPAVLQSSGLYSLSSVVTVPSSSLGTQTYICNVNHKPSNTKVDKKVEPKSCDKTHTCPPCPAPEAAGAPSVFLFPPKPKDTLMISRTPEVTCVVVDVSHEDPEVKFNWYVDGVEVHNAKTKPREEQYNSTYRVVSVLTVLHQDWLNGKEYKCKVSNKALPAPIEKTISKAKGQPREPQVYTLPPSREEMTKNQVSLTCLVKGFYPSDIAVEWESNGQPENNYKTTPPVLDSDGSFFLYSKLTVDKSRWQQGNVFSCSVMHEALHNHYTQKSLSLSPGK
light: B1 light
notes: also called Hu 3D6 3 m; Hu 3D6 3 m IgG1
B4: Bapineuzumab (humanized 3D6, human IgG1, no Fc mutations) (antibody)
heavy: not shown
light: B1 light
notes: also called AAB-001; Bapineuzumab Control

Each binder was assayed against Purified human C1q (191391, MP Biomedicals) (human, UniProt P02745 23-245; P02746 28-253; P02747 29-245) (assay: ELISA: Aβ-coated plate, antibody, purified human C1q, FITC anti-C1q).
Sequence of Purified human C1q (191391, MP Biomedicals) (P02745 23-245 limits assumed, chain 1 of 3): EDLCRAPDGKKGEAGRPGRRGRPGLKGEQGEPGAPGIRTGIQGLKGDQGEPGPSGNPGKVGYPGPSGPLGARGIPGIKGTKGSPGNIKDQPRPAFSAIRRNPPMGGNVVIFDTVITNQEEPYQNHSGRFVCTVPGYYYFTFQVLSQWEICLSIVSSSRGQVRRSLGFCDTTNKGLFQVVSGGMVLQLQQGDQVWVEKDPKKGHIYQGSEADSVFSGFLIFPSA
Sequence of Purified human C1q (191391, MP Biomedicals) (P02746 28-253 limits assumed, chain 2 of 3): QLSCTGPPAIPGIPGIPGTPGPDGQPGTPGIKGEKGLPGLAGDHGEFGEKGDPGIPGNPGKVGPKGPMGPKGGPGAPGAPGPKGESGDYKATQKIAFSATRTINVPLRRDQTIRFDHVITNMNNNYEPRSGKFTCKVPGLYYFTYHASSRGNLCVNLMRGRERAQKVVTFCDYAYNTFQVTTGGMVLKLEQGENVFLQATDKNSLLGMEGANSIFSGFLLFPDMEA
Sequence of Purified human C1q (191391, MP Biomedicals) (P02747 29-245 limits assumed, chain 3 of 3): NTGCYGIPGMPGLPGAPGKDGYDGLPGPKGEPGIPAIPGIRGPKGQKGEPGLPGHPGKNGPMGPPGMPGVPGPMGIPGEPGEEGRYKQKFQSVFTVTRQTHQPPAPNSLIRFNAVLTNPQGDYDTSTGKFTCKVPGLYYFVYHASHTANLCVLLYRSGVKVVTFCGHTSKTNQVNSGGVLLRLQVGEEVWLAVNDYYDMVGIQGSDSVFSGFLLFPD
B1: no binding.
B2: no binding.
B3: no binding.

Each binder was assayed against T1, His-tagged domains of human FcγRIII (R&D Systems, Cat # 1597-Fc) (human, UniProt O75015 17-200, limits assumed) (assay: SPR (Biacore 3000), His-tagged receptor captured by penta-His antibody).
T1 construct: not shown: His tag
T1 sequence (O75015 17-200 limits assumed): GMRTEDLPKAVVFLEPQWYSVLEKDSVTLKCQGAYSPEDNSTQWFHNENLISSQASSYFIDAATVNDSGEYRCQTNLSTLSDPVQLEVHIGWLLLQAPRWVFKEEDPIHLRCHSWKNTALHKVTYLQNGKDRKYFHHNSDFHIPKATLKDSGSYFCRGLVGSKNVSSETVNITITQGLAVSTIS
B1: no binding.
B2: no binding.
B3: no binding.

What follows are binders tested against T2, His-tagged domains of human FcγRI (R&D Systems, Cat # 1257-Fc) (human, UniProt P12314 16-288) in the same assay as above.
T2 construct: Bought construct; not shown: His tag
T2 sequence (P12314 16-288 limits assumed): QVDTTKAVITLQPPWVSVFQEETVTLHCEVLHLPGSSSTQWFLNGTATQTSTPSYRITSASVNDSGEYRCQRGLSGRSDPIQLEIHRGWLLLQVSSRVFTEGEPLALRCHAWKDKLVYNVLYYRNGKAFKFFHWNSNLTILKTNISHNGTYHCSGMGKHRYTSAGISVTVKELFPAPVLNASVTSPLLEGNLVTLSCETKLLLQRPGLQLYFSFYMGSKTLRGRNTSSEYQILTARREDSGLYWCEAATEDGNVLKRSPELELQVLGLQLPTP
B1: no binding.
B2: binds.
B3: no binding.

These binders were tested against T1, His-tagged domains of human FcγRIII … (assay: SPR (Biacore 3000), His-tagged receptor captured by penta-His antibody on CM5 chip, antibody injected; RU relative to control).
For B1, the “Relative Binding Capability (%)” value was 0%.
B2 was tested, and the “Relative Binding Capability (%)” value was 0%.
For B4, the “Relative Binding Capability (%)” value was 100%.
B3 was tested, and the “Relative Binding Capability (%)” value was 0%.

Each binder was assayed against T2, His-tagged domains of human FcγRI (R&D …) in the same assay as above.
For B1, the “Relative Binding Capability (%)” value was 0%.
For B4, the “Relative Binding Capability (%)” value was 100%.
In the case of B3, the “Relative Binding Capability (%)” value is reported as 0%.
